Measured values from paper PMC2953525, “Subtle Alterations in PCNA-Partner Interactions Severely Impair DNA Replication and Repair” (PLoS Biology, 2010).
Where a chain is given by its changes, count along the chain named. Where no end group is shown, it is not given here.

T1: pol30-Ung1E3, 6×Histidine-tagged (yeast, UniProt P15873 1-258, IDCL DIDADFLKIEEL to DFDYDELKIEEL)
T1 construct: PCNA (POL30), yeast, in pET28; source: E. coli BL21, in cleared crude lysate (ELISA); purified by Ni-NTA (SPR)
T1 sequence: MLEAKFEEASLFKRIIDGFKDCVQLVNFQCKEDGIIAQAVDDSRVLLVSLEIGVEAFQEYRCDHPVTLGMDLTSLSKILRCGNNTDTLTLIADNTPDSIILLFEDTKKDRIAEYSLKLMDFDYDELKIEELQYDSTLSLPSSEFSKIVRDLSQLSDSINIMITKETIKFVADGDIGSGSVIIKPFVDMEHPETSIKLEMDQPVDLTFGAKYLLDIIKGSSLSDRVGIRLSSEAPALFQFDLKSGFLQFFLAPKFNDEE

T2: pol30-Msh6E6, 6×Histidine-tagged (yeast, UniProt P15873 1-258, IDCL DIDADFLKIEEL to DYDKDLLKIIEL)
T2 construct: PCNA (POL30), yeast, in pET28; source: E. coli BL21, in cleared crude lysate (ELISA); purified by Ni-NTA (SPR)
T2 sequence: T1 sequence with F121Y, Y123K, E125L, E129I


How the values were obtained:
[1] = target: T1, pol30-Ung1E3, 6×Histidine-tagged; test: SPR; ProteOn XPR36; WT or mutant PCNA (0.4 to 5.2 fmol) immobilised on a GLM chip by carbodiimide-activated succinimide coupling; PIP peptides 5–5,000 nM at 30 µl/min; peptide buffer 150 mM NaCl, 1 mM EDTA, 0.01% Tween-80, 30 mM Hepes, pH 7.5; settings: both partners purified
[2] = target: T2, pol30-Msh6E6, 6×Histidine-tagged; test: as above; settings: both partners purified

fold increase in binding affinity relative to WT PCNA (SPR) [1] [fold] | fold increase in binding affinity relative to WT PCNA (SPR) [2] [fold] | Binder
3.5 | – | QTTIEDFF (also: biotinylated, site not given here) [PIP peptide derived from Ung1]
– | 1.6 | QSSLLSFF (also: biotinylated, site not given here) [PIP peptide derived from Msh6]
